In test [1] the target is T1, human IL-22 (human, UniProt Q9GZX6 34-179).
T1 sequence: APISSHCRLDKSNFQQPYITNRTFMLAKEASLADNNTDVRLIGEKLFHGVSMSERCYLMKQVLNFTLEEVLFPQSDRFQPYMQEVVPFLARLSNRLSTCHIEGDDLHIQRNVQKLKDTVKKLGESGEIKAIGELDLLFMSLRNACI
The experiment in a line: cell-based or functional assay.

For test [2], the target named is T2, murine IL-22 (murine, UniProt Q9JJY9 34-179).
T2 sequence: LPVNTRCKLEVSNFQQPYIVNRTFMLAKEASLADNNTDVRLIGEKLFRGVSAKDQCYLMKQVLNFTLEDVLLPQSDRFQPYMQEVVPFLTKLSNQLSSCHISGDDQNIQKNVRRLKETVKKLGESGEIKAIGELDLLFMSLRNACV
The experiment in a line: cell-based or functional assay.

The target of test [3] is T3, rat IL-22 (rat, UniProt G3V6X6 34-178).
T3 sequence: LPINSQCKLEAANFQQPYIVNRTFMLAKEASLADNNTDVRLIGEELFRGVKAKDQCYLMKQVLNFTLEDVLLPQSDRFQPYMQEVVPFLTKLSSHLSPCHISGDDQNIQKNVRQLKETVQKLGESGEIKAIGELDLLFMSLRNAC
Put plainly: cell-based or functional assay.

Test [4] has as its target monkey IL-22 (monkey). The experiment in a line: cell-based or functional assay.
For test [5], the target named is T1, human IL-22. The experiment in a line: cell-based or functional assay. This is another data set of the same source.
The target of test [6] is T2, murine IL-22. The experiment in a line: cell-based or functional assay. The source holds these as a separate data set.
Test [7] concerns the target T3, rat IL-22. Put plainly: cell-based or functional assay. This is another data set of the same source.
In test [8] the target is monkey IL-22 (monkey). The experiment in a line: cell-based or functional assay. This is another data set of the same source.
Another test addresses T4, human IL-20 (human, UniProt Q9NYY1 25-176).
T4 sequence (looked up): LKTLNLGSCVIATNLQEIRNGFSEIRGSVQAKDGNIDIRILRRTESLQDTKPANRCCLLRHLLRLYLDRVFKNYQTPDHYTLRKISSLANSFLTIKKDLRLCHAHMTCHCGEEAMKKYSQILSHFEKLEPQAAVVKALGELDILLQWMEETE
Put plainly: BIA (surface plasmon resonance). For orientation: SPR reads the build-up and loss of mass on a sensor chip optically.

A further test concerns the target T5, human IL-24 (human, UniProt Q13007 52-206, limits assumed).
T5 sequence (looked up): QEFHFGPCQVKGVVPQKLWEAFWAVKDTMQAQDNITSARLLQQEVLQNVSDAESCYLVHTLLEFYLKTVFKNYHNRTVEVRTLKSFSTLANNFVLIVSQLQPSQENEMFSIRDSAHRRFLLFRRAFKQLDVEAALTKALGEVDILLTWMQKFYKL
Put plainly: BIA (surface plasmon resonance).

A further test concerns the target T6, human IL-28A (human, UniProt Q8IZJ0 26-200).
T6 sequence (looked up): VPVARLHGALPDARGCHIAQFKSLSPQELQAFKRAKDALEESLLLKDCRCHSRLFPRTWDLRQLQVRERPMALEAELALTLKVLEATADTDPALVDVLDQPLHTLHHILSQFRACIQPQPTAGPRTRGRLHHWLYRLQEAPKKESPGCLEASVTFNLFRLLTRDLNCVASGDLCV
Put plainly: BIA (surface plasmon resonance).

Another test addresses human IL-29 (human, UniProt Q8IU54 20-200). The experiment in a line: BIA (surface plasmon resonance).
Another test concerns the target T7, human IFN-ω (human, UniProt P05000 24-195).
T7 sequence (looked up): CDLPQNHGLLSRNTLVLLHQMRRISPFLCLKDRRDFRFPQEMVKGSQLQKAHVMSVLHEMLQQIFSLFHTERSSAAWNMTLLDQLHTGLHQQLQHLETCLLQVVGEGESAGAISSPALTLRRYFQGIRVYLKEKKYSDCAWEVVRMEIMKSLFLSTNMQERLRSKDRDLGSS
The experiment in a line: BIA (surface plasmon resonance).

For another test, the target named is human IL-10 (human, UniProt P22301 19-178). Put plainly: BIA (surface plasmon resonance).
Chain of human IL-10 (P22301 19-178 limits assumed): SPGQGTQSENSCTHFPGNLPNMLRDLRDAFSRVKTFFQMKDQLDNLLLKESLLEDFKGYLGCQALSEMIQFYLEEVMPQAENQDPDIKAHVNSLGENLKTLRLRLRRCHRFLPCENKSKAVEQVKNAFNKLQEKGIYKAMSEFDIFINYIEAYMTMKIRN
A further test addresses T8, human IL-19 (human, UniProt Q9UHD0 25-177).
T8 sequence (looked up): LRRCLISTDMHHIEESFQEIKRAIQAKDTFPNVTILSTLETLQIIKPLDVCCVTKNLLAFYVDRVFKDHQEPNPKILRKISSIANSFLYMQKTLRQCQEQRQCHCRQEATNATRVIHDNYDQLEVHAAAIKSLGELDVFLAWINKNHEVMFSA
The experiment in a line: BIA (surface plasmon resonance).

Test [9] addresses T1, human IL-22. The experiment in a line: SPR (Biacore), antibody amine-coupled to CM5 chip, human IL-22 as analyte, 1:1 model. The procedure:
To prepare the biosensor surface for the human monoclonal antibodies, either human monoclonal antibody (356A11 or 368D04) or control antibody PD-1 (#17) were immobilized onto a research-grade carboxymethyl dextran chip (CM5) using standard amine coupling. The surface was activated with EDC/NHS. The capturing antibodies were injected at a concentration of 1 μg/ml in sodium acetate buffer (pH 5.5). Remaining activated groups were blocked with 1.0 M ethanolamine (pH 8.0). The first flow cell was used as a reference surface to correct for bulk refractive index, matrix effects, and non-specific binding. The second, third, and fourth flow cells were coated with the capturing molecule.
The kinetic data were analyzed using BIAevaluation software 3.0.2 applied to a 1:1 model. The apparent dissociation (Kd) and association (Kₐ) rate constants were calculated from the appropriate regions of the sensorgrams using a global analysis. The affinity constants of the interaction between antibody and analyte were calculated from the kinetic rate constants by the following formulae: KD=Kd/Kₐ, where KD is the dissociation constant and KA=Kₐ/Kd, where KA is the association constant.

The source of these data is patent US20070243589A1 (Pfizer, published 2007).

Chain of human IL-29 (Q8IU54 20-200 limits assumed): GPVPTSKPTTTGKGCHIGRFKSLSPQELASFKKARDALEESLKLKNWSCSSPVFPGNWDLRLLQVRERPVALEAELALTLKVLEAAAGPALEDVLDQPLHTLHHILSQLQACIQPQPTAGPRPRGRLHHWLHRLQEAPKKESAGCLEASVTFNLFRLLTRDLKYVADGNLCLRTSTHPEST

B1: 356A11, human monoclonal anti-IL-22 antibody as used in Examples 10 and 11 (antibody, V domains shown)
VH: QVQLVQSGAEVKKPGASVKVSCKASGYTFTNYYMHWVRQAPGQGLEWVGWINPYTGSAFYAQKFRGRVTMTRDTSISTAYMELSRLRSDDTAVYYCAREPEKFDSDDSDVWGRGTLVTVSS
VL: QAVLTQPPSVSGAPGQRVTISCTGSSSNIGAGYGVHWYQQLPGTAPKLLIYGDSNRPSGVPDRFSGSKSGTSASLAITGLQAEDEADYYCQSYDNSLSGYVFGGGTQLTVLG
A word on the Kd: it is the free concentration of one partner at which half of the binding sites on the other are occupied at equilibrium, for simple one-to-one binding. A word on the koff: it is a measure of how fast the partners let go of each other. Usually kon stands for the rate constant with which the complex forms. As for B1, the “IC50 in GROa cell based assay” value was found to be 124 pM in the test with human IL-22 [1], 144 pM with murine IL-22 [2], 211 pM with rat IL-22 [3] and 89.6 pM with monkey IL-22 [4]. In addition, the “IC50 in BaF3 cell based assay” value stood at 3.57 pM with human IL-22 [5], 2.53 pM with murine IL-22 [6], 10.7 pM in the test with rat IL-22 [7] and 2.58 pM in the test with monkey IL-22 [8]. Moreover, the binding result with human IL-20, in the test with human IL-24, in the test with human IL-28A, with human IL-29, in the test with human IFN-ω and with human IL-10 was “no binding” each time. Further, the binding result with human IL-19 is recorded as “no binding”. This molecule displayed a Ka with human IL-22 [9] of 1.85e+10 M⁻¹. Further, the equilibrium dissociation constant (Kd) with human IL-22 [9] is 54 pM. Moreover, the koff with human IL-22 [9] came out at 4.27e-06 s⁻¹. In the test with human IL-22 [9], this molecule yielded a kon of 79100 M⁻¹ s⁻¹.
